From US8357523B2, “Beta-glucosidase variant enzymes and related polynucleotides” (Codexis, Inc., priority 2009, dated 2013)
Positions count from the first letter of the chain named.

B1: 119 (protein)
chain: STAIAQEGAAPAAILHPEKWPRPATQRLIDPAVEKRVDALLKQLSVEEKVGQVIQGDIGTITPEDLRKYPLGSILAGGNSGPNGDDRAPPKEWLDLADAFYRVSLEKRPGHTPIPVLFGIDAVHGHGNIGSATIFPHNIALGATRDPELLRRIGEVTAQEMAATGIDWTFAPALSVVRDDRWGRTYEGFSEDPEIVAAYSPAIVEGVQGKYGSKDFMAPGRIVACAKHFLADGGTDQGRDQGDARISEDELIRIHNAGYPPAIDAGVLTVMASFSSWQGIKHHGHKQLLTDVLKGQMGFNGFIVGDWNAHDQVPGCTKFNCPTSLIAGLDMYMAADSWKQLYENTLAQVKDGTIPMARLDDAVRRILRVKVLAGLFEKPAPKDRPGLPGLETLGSPEHRAVGREAVRKSLVLLKNDKGTLPLSPKARVLVAGDGADNIGKQSGGWTISWQGTGNRNDEFPGATSILGGIRDAVADAGGSVEFDVAGQYKTKPDVAIVVFGEEPYAEFQGDVETLEYQPDQKQDLALLKKLKDQGIPVVAVFLSGRPMWVNPELNASDAFVAAWLPGTEGGGVADVLFTDKAGKVQHDFAGKLSYSWPRTAAQTTVNRGDADYNPLFAYGYGLTYKDKSKVGTLPEESGVPAEARQNAGIYFRAGALRLPGRFL
B2: 124 (protein)
chain: B1 chain with N79D, D146S, Q159E, K339R
B3: 121 (protein)
chain: B1 chain with D146S, Q159V, A162T, A173C, Y211F, C225S
B4: 120 (protein)
chain: B1 chain with N79D, Q159V, A162T, A198S, P201A, Y211F, C225S, L663P
B5: 125 (protein)
chain: B1 chain with Q159V, Y211F, I222S
B6: 131 (protein)
chain: B1 chain with N128K, Q159E, A173C, P201A, Y211F, C225S
B7: 127 (protein)
chain: B1 chain with N79D, D146S, Q159V, I222S
B8: 122 (protein)
chain: B1 chain with N79D, N128K, Q159E, P219V
B9: 130 (protein)
chain: B1 chain with A24V, A143M, Q159E, I222S
B10: 129 (protein)
chain: B1 chain with N79D, Q159E, A162T, Y211F, I535V
B11: 126 (protein)
chain: B1 chain with N79D, A143M, Q159V, A162T, Y211F, Q585R
B12: 128 (protein)
chain: B1 chain with N79D, N128K, A143M, Q159E
B13: 123 (protein)
chain: B1 chain with N79D, N128K, A143M, Q159V, A162T, P219V, C225S

Experiment: High throughput cellobiose assay: fold improvement in cellobiase activity of CelA variants over a control enzyme (Tables 2A-2D, 3, 5, 6, 7)
Format: biochemical
Conditions: 3.3 g/l cellobiose, 55° C. and pH 6.0

Molecule	Fold improvement over Control Variant No. 5 from Table 2A
B1	+++ (+++ = 6 to 13 fold improvement over control Variant No. 2)
B2	+++ (+++ = 6 to 13 fold improvement over control Variant No. 2)
B3	++ (++ = 1.1 to 6 fold improvement over control Variant No. 2)
B4	+++ (+++ = 6 to 13 fold improvement over control Variant No. 2)
B5	+++ (+++ = 6 to 13 fold improvement over control Variant No. 2)
B6	++ (++ = 1.1 to 6 fold improvement over control Variant No. 2)
B7	+++ (+++ = 6 to 13 fold improvement over control Variant No. 2)
B8	+++ (+++ = 6 to 13 fold improvement over control Variant No. 2)
B9	+++ (+++ = 6 to 13 fold improvement over control Variant No. 2)
B10	+++ (+++ = 6 to 13 fold improvement over control Variant No. 2)
B11	++ (++ = 1.1 to 6 fold improvement over control Variant No. 2)
B12	+++ (+++ = 6 to 13 fold improvement over control Variant No. 2)
B13	++ (++ = 1.1 to 6 fold improvement over control Variant No. 2)
